Assay: soluble on expression in E. coli; label from the status in PepcDB or PDB records

Sequence | soluble on expression in E. coli
MKMLTVENLSKSYGEKPLFDGLSFSIAEGQRAGIIGVNGTGKSTLLKIIAGAEIPDTGDMTHSRGYTISYLSQQPEFDEQLTVLEQVFHGDTPLIRLLRDYEKALLHIEKDPSNEKVQEQLFAVQQRMDAMSVWEANANAKSLLTKLGITDFTATVGNLSGGQKKRIAMAQCFIETPDLLILDEPTNHLDHETVEWLEEYLARYTGAVLLVTHDRYFLDRVTNRIFELDNGKLYSYEGNYSTFLEAKALREEQELAQESKRQNLYRRELAWIRRGAKARSTKQKARIQRFEELKGQEGPAAKQSVDIALSGSRLGKKVLELKDVTKKFGDKTVLNNFNHIVKPGDRIGIIGANGSGKSSLLNMLAGKISPDSGEIEVGQTVKIAYYTQENEEMNLNQRMIEYIKEIAEVIHTTDGKVIGASQMLERFLFPPHSHGTPLGKLSGGERRRLYLLRILMGEPNVLLLDEPTNDLDPQTLTVLEDYLEDFSGVVLTVSHDRYFLDKVVDELFIFTGEGEVREFLGSYTDYLEMEKTRELIEKAEVQKEKKVVEEAPKQQRKRKLSYNEQREWETIEDTIAELEEKLESIGEELANVGSDFTKAQELSEAQQKTEEELEKTMERWSELSDIVEGLK | not soluble
MTKVALFSGGDLTYFTRDFDYFVGIDKGSSFLLKNQLPLDLAIGDFDSVSAEEFKQIKAKAKKLVMAPAEKNDTDTELALKTIFDCFGRVEIIVFGAFGGRIDHMLSNIFLPSDPDLAPFMRCFKLRDEQNLVEFFPAGQHQIEQATDMVYISFMAANGAHLSIQDAKYELTEENYFQKKIYSSNEFKDKPICFSVASGYVVVIQTKDRTLEHHHHHH | soluble
MTEHTSSYYAASANKYAPFDTLNESITCDVCVVGGGYTGLSSALHLAEAGFDVVVLEASRIGFGASGRNGGQLVNSYSRDIDVIEKSYGMDTARMLGSMMFEGGEIIRERIKRYQIDCDYRPGGLFVAMNDKQLATLEEQKENWVRYGNKQLELLDVNAIRREVASDRYTGALLDHSGGHIHPLNLAIGEADAIRLNGGRVYELSAVTQIQHTTPAVVRTANGQVTAKYVIVAGNAYLGDKVEPELAKRSMPCGTQVITTERLSEDLARSLIPKNYCVEDCNYLLDYYRLTADNRLLYGGGVVYGARNPDDVERLVVPKLLKTFPQLKGVKIDYRWTGNFLLTLSHMPQFGRLDTNIYYMQGYSGHGVTCTHLAGRLIAELLRGDAERFDAFANLPHYPFPGGRTLRVPFTAMGAAYYSLRDRLGV | not soluble
MGSDKIHHHHHHMTAQQGVPIKITNKEIAQEFLDKYDTFLFDCDGVLWLGSQALPYTLEILNLLKQLGKQLIFVTNNSTKSRLAYTKKFASFGIDVKEEQIFTSGYASAVYIRDFLKLQPGKDKVWVFGESGIGEELKLMGYESLGGADSRLDTPFDAAKSPFLVNGLDKDVSCVIAGLDTKVNYHRLAVTLQYLQKDSVHFVGTNVDSTFPQKGYTFPGAGSMIESLAFSSNRRPSYCGKPNQNMLNSIISAFNLDRSKCCMVGDRLNTDMKFGVEGGLGGTLLVLSGIETEERALKISHDYPRPKFYIDKLGDIYTLTNNEL | not soluble
MGSDKIHHHHHHMADLTDLERTRHLVDLLAPARKTRIVDIGANPINDNPYAPLLDIGAAEVWGFEPQTEAFDKLVARNAPDEHYVNAAVGKGGTGTLNICASSGTSSLLTPNVDAMDAVTGWHKYFEVVGTVDVETKRLDNIAEIPEFDLLKIDVQGAEREVFTYGKKRLSTALAVITEVAAIPLYEDQPLLGDQMVLLGKLGFDLHKFLFWKDVVLRSKYLNGMRRRRMRTQLVDGDAVFVRDLLHLKDMETERLKHLTLLADAVFESFDMVLYCLEILEDRGVLTEAAIRTYVARMPYQRDPQPRLVESVGQ | not soluble
MRILEEDLKNSTYRIRIESLDDLWYLRNILSEGDEVSAITFRRVEESADVQRSRERERIPITIRLKVEKIEFQDFDNRLRILGTVIEGPEDTKGKHQSITVTVDSEISITKEWDDQHIDLLKEATDEKYVTVYTAVAMDEDEAQIFLIHPYGIQQVGTVYSGRSGKYAEGNYSEASYFDQIVNALKNYSNSIIILGPGFARDRFARYCAQRGVNVIGSFPANRTDSGAVYEFITSADGAKLLSNERIARDKEIVDEFLVAVKKDMGVYGRDQTESALQMGALSDLIITDEMFRTEDGRRSLSIAQTVGTRIHIVSVSNDPGQIVKKFGGFAGILRYRVQLEHHHHHH | soluble
QTFSEEDHAILASYFPIVDGIAALIGEHCEIVLHSLEFLENSAIYIANGHNTDRKIGSPLTDKALKSLHQMQTDSVSKPYFTRLKGGILMKSITIAIRNSKQHVIGFICININLDVPTAQFLTSFIPRTQDDEN | not soluble
MHKDTHCAVVIDCWMNKLGEVNFENRPSRYPAFVEDVRKICGTKEIVFGLEDTRGFGRNLAAYLVGRKFEVKHVNPAYTSAVRLANPIIYKDDSYDAYCVARVLRDMVDTLKDAKHEDIFWTIRQMVKRRDLIVKSNVMNKNQLHSQLAYSYPSYRKFFAMIDSKSALCFWENYPSPEYIWNTIPEEIYQTIKPVHQALKIQRIHEIISMIERDGDTRKDYQPERDFIVRNIVKDIRHNKELIAEIDDELRKLIPLTGYKLHTMPGIDLVTEAQIISEIGDINRFPDSDKLARFMGLAPVQFSSAGKGKDQRCRNGNRALNAIFHFLAIQMVAVSASGKPRHPVFREYFEQKVKEGKNKPQALVCVARRLVRIIYGMMKTRTEYRPYEKVDDKN | soluble
MGSDKIHHHHHHMIDEHHIDALTKLLGDKGVVTRREDMEAYEAGARYDRGRAAAVLRPVTTEEVSAAVGYCVRSGIALIPQSGNTGLVSGSTPDESGSEVVVSLDRLTRQFALDLDNRSVRVDAGFRLSELNRRLEEHGLFFPIDLGADPRIGGMIATNTGGSRFLKYGDVRRNTLGLKVVLADEAGTVLDLGSDLRKNNTGVDWKQIFIGTSGAFGIVTECVLNLERLPKQTATAFLVPASGAHVLPLLKAMEERLGAYLSAFEGMSRNAIAAAFAHVPALKNPFQGGKVPDYVILAEISRTSSPREGEQPLDAVLESVLAEIWEMEEVLLADALVGPPHEIWALRHALSEGVKHLGKLIAFDLSFRRGDIMAFCDHMKTEMPEKFPGVTVCDFGHIGDGGVHFNLVVAKDSPLLADATFEQRLREWVFAVAVEQYHGSFSAEHALGRRNQAFYDLYTPEKLKNMAAGLKTLTSPGKLGSVRFG | not soluble
MGSDKIHHHHHHMAARLREFRRAIGDPDREEFARSIGVSKTTLASYERGESEPTASVLFAYREKHGADVLWLVGGEGEMRGSQLSSAAVAERDFVLMPQYDVCASAGTGRLPVNQMPTSETAFERKFLRDLGGAPDHCFLMWSTGDSMLPSIPDNALLIVDASQTTVDHGRIYVFSVGNAVLVKRANWRMDGRLDLISDNTAGKYPVETFDANRVEDLAVVGRVIFVGHPP | not soluble
MGSDKIHHHHHHMDLRGRLIPDYRIDTPVDAPLEYRPAVTWRCERCGKLPTRGPCTCGKRCYYCRHCLIFGKLRTCDRLVTDPRPLDPVRPDHHTELNLTSDQQRIAEAIVRTIDQRKRLLVHAVCGAGKTPMLFPGIERALSTNRRVLITAPRADVVRELTGHLRRAFQQATIVSLFGGSEDRLGIGDITISTTHQLIHYRACFDVVFIDEVDAFPYRTDRTLHRYVRQATAPGASLILLSATPSLRDRRLPTVRLMRRYHGFPLPTPRLQVPYGKHDVVDWVLTHAGKPRLLFVPQVEALETWQTCLQQQGITCETVHAADPDRITKVARFRQTTGVLLTTTILERGVTLINVQVAVLDADHSFSSAALIQISGRVGRSADFPEGDVVLFANDRSDAMYEAIDHIKRANREGFR | not soluble
MGSSHHHHHHGKTIFVIVPTNEEQVAFLEALAKQDELNFDWQNPPTEPGQPVVILIPSDMVEWFLEMLKAKGIPFTVYVEEGGSENLYFQGGGGGGPKREEQMYMHIRKVYGDNIPEELLQRAKRQREAQDALTLTNMLRTPTPGQTSNALQNDLDPRALIELKSWNGH | soluble
MAHHHHHHMKKNFPQSYNFFPLTWILPNEISDFKNYFKKESGSKTYIVKLKNSCQGKGIYLTKTLDNINKYDSCVIQKYIHKPLLINGLKFDIRLYVLVTGCDPLRIFLHEDGLVRFSIEKYKLPKSKNLKQVNMHLTNFSINKKSDKFENSPNPDDATMGHKRSWKAFLQKLKEEGLPMDSVMKRIEHMIVKTICSIQPELKHYYNSAHISDYSNSMCFEVLGFDILLDYKLKPWLLEVNHSPSFATSSLVDEKVKYAVIRDTLNMLYMHSKYRHIHIQEYLNLQKFRKKYSDVL | not soluble
MIFSVRGEVLEVALDHAVIEAAGIGYRVNATPSALATLNQGSQARLVTAMVVREDSMTLYGFSDAENRDLFLALLSVSGVGPRLAMATLAVHDAAALRQALADSDVASLTRVPGIGRRGAERIVLELADKVGPVGASGLTVGTAADGNAVRGSVVEALVGLGFAAKQAEEATDQVLDGELGKDGAVATSSALRAALSLLGKTR | soluble
MGSDKIHHHHHHMDLRQLPALNAIRAFEAAARHENFSRAADELFVTHGAVSHQVRALEEELGVQLFARNGKRLCLTGAGMRYAQQVRTALMMLADATREVRASDRDRRLVVSMLSSFAARFVTPRIGTFIERHPEIDVELQSTNNLTDFARDDVDLAIRFGFGNYPGLHVEPLFDEVFFPACAPTLNGGKLPQTPADLVHYNLLRSDDELWRPWFDAAGLDTLTEPKRGILYQDSSNLLLAAIEGQGIALVRRSLAVHDLLDGRLVRLFDIDGASPWHYFFVCPPPLLNAPRVQAFRAWMFEEVAQFKLLCDELDARRAAGKTPAECAQEGGWKGLRAQP | not soluble
MAGDPMTSLTYLQGYPEHLLAQVRALIAEQRLGAVLEKRYPGAHDYATDKALYHYTQELKSQFLRNAPPINKVMYDSKIHVLKNALGLHTAVSRVQGGKLKAKAEIRVATVFRNAPEPFLRMIVVHELAHLKEKDHNKAFYQLCCHMEPQYHQLEFDTRLWLTHQALSAQLEHHHHHH | not soluble
GMELKSAEEKSLYYRNKIKEVIDEVGKVVVGQKYMINRLLIGICTGGHILLEGVPGLAKTLSVNTLAKTMDLDFHRIQFTPDLLPSDLIGTMIYNQHKGNFEVKKGPVFSNFILADEVNRSPAKVQSALLECMQEKQVTIGDTTYPLDNPFLVLATQNPVEQEGTYPLPEAQVDRFMMKIHLTYLDKESELEVMRRVSNMNFNYQVQKIVSKNDVLEIRNEINKVTISESLEKYIIELVFATRFPAEYGLEAEASYILYGASTRAAINLNRVAKAMAFFNNRDYVLPEDIKEVAYDILNHRIILNYEAEAEGISTRQIIETILRKVNITKA | soluble
MKLGYSLSKSNAKNFKFYINGSAMGYKNIIINGAKSWNASPYLNTVSKGRDANPHFIISSSTIDRGATVAVCETWAYKGSKLVAKNEITTFKAFRSLSVGDKTETIAHEFGHGLGLGHVKTKNAIMLDVGFTKKIKPQRDDLNGIKAIYKLEHHHHHH | not soluble
MKLIIAVVQDKDSNRLSEALVKANYRATKLASTGGFLKAGNTTFLIGTEDEHVEEVMSIIKDNCKSRDQLVAPISPMGGNADSYVPYPVEVQVGGATVFVLPVEQFEQY | not soluble
MSDKPDSQVFCPNCNERLQKCLVQQNYAIIICPSLVCGYPFNQREVLENLTYVDDNDVLKVAKKRLSSRSKP | soluble
MAHHHHHHMPPQRQCSHCEKEKAVLKRPRNGKLLCQRCFFNLFEAEVHETIMKEKLFKPGDIVACGASGGKDSTVLIHLMKLLNEQHEYGIQLLLLSIDEGIAGYRDDSLKTVHRNAEVYNLPLRVLSYKELYGWTMDEVVKVTGLRSSCTYCGVFRRQALDRGAAMLGATKVVTGHNADDLAETILMNILRGDLPRLSRCTSAITSGESLLPRVKPLKYAYEKEIVLYAHFKKLDYFTTECTYSKEAFRSEARTLLKNIEILQPRCILDTIRTGEQLRVKEQECATENPPSACTRCGYVTSQSLCRACVLLQGLNMNGPAVCVREQPQPQQQQQQQNVEVEGQ | not soluble
